± gives the uncertainty stated by the source.
Experiment: protein stability index of a GFP-peptide fusion (yeast GPS) (PSI 1-4); higher = more stable; sorted into four equal gates, so the index is relative within each strain
Outline: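 Tiled 17-residue yeast protein peptides were fused downstream of GFP in a plasmid that also expresses Cherry, and the pooled library was carried in yeast. Mid-log cultures in leucine-free medium were sorted into four equal gates by GFP/Cherry fluorescence ratio, and plasmids from each gate were PCR-amplified and Illumina-sequenced, with reads assigned to strains by barcodes. The protein stability index for each peptide was each gate's read frequency times its gate number, summed.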

Row | Sequence | protein stability index (doa10∆) | protein stability index (pdr5∆) | protein stability index (san1∆) | protein stability index (ubr1∆)
1 | IIESHLIQLQNIFKAEM [CSN9] | 2.75 ± 0.1 | 3.14 ± 0.11 | 2.85 ± 0.088 | 2.74 ± 0.073
2 | IIKDYVLDIVPGSSITE [SRB4] | – | 2.58 ± 0.19 | – | 3.2 ± 0.19
3 | IIKKDEVVKRYLKMRQD [PUP3] | 3.66 ± 0.2 | – | – | –
4 | IIKQTVHPIPDVAFADG [YMR129W/POM152] | 2.8 ± 0.053 | 2.89 ± 0.062 | 2.77 ± 0.046 | 2.82 ± 0.043
5 | IILSIDEHHESFELKEE [RRP6] | 3.19 ± 0.1 | 2.99 ± 0.15 | 3.08 ± 0.08 | 2.98 ± 0.088
6 | IIMHKDVEIGRMPIMLR [RET1] | 3.29 ± 0.26 | 3.18 ± 0.16 | 2.98 ± 0.079 | 2.72 ± 0.16
7 | IINFGEIEQNTELLDEF [RPN10] | 3.25 ± 0.1 | 3.42 ± 0.083 | 3.23 ± 0.07 | 3.17 ± 0.072
8 | IIQPFLDNSKMDYHFIF [RGR1] | 2.99 ± 0.13 | 2.06 ± 0.082 | 2.22 ± 0.049 | 2.31 ± 0.11
9 | IITQYVFESLEINNLIQ [ARP9] | 3.2 ± 0.098 | 2.93 ± 0.081 | 2.8 ± 0.12 | 2.96 ± 0.1
10 | IIYHTTFSWLNAELLDY [YLR018C/POM34] | 2.72 ± 0.072 | 2.19 ± 0.068 | 2.56 ± 0.092 | 2.41 ± 0.052
11 | IIYPRSQTTLVQFGLNE [ARP9] | 3.04 ± 0.19 | 1.33 ± 0.082 | 2.03 ± 0.12 | 1.26 ± 0.17
12 | IKGPEFKFSGTVSSDVF [YLR335W/NUP2] | – | 3.17 ± 0.18 | – | –
13 | IKIGIRVMKSLSINEKD [YCG1] | 1.49 ± 0.087 | 1.61 ± 0.061 | 1.36 ± 0.2 | 1.56 ± 0.091
14 | IKIKSLEYEISKLKKET [YIL149C/MLP2] | 2.97 ± 0.26 | 2.97 ± 0.096 | 2.99 ± 0.075 | 3.06 ± 0.07
15 | IKKKRKELFEKTFDYVS [SMC1] | 3.16 ± 0.12 | 3.07 ± 0.099 | 3.09 ± 0.12 | 3.13 ± 0.084
16 | IKKPKTYKYPSLKGVDP [RPL29] | 3.63 ± 0.29 | 3.62 ± 0.2 | – | –
17 | IKLVKQNDELKFQGVLE [RPC34] | 3.25 ± 0.13 | 3.53 ± 0.12 | 3.37 ± 0.051 | 2.58 ± 0.095
18 | IKNLPADVSKLMYSITF [SRB2] | 2.41 ± 0.054 | 2.95 ± 0.046 | 2.38 ± 0.049 | 2.76 ± 0.047
19 | IKNVQDLLILTRSIKEK [SRB6] | 1.34 ± 0.11 | 1.31 ± 0.13 | – | 1.76 ± 0.2
20 | IKSIIEQRKQKLSKILP [SMC3] | 2.44 ± 0.084 | 2.7 ± 0.091 | 2.52 ± 0.081 | 2.82 ± 0.078
21 | IKTVVLVPQLGHVGSVQ [PRP8] | 2.42 ± 0.056 | 2.47 ± 0.049 | 2.28 ± 0.063 | 2.35 ± 0.041
22 | IKVEGAVGNLGNAVTVT [RPL22A] | 3.39 ± 0.14 | 3.18 ± 0.13 | 3.15 ± 0.083 | 3.06 ± 0.079
23 | IKVWTIKGQCLATLLGH [ASC1] | 2.22 ± 0.085 | 1.59 ± 0.099 | 1.69 ± 0.1 | 1.39 ± 0.057
24 | ILADEMGLGKTLQTISF [ISW2] | 3.09 ± 0.07 | 3.06 ± 0.066 | 2.91 ± 0.057 | 2.77 ± 0.061
25 | ILDINVSSSKNKKSEEN [SWP82] | 3.36 ± 0.15 | 3.21 ± 0.083 | 3.27 ± 0.08 | 3.27 ± 0.079
26 | ILDKIFYGVLDQGNGWL [RPN6] | 3.31 ± 0.096 | 2.65 ± 0.069 | 2.45 ± 0.059 | 3.11 ± 0.061
27 | ILEVGALASIQTFNFDS [RPN12] | 2.31 ± 0.095 | 2.65 ± 0.18 | 2.96 ± 0.17 | 2.86 ± 0.077

Row | Sequence | protein stability index (doa10∆) | protein stability index (pdr5∆) | protein stability index (san1∆) | protein stability index (ubr1∆)
28 | ILGELKRVKSYMDKAKQ [LRP1] | 2.23 ± 0.079 | 2.35 ± 0.082 | 1.89 ± 0.12 | 2.36 ± 0.065
29 | ILKDLIYRGVLNDENSD [SMC1] | 1.81 ± 0.059 | 2.18 ± 0.076 | 1.92 ± 0.13 | 2.21 ± 0.066
30 | ILLRYHHNDISNDSQSH [YCG1] | 1.65 ± 0.15 | 1.28 ± 0.13 | 1.96 ± 0.2 | 1.51 ± 0.081
31 | ILQQRSKINSTELLDYA [MED4] | 2.84 ± 0.086 | 2.61 ± 0.081 | 2.44 ± 0.054 | 2.97 ± 0.11
32 | ILRKELSEEKEVIFTDV [MCD1] | 2.66 ± 0.15 | 3.02 ± 0.23 | 2.32 ± 0.12 | 2.73 ± 0.17
33 | ILSLATEGCIGLSQTEA [MCD1] | 2.58 ± 0.056 | 2.49 ± 0.068 | 2.81 ± 0.09 | 2.4 ± 0.062
34 | ILSQQFDKIIKIREDHI [SRB8] | 2.62 ± 0.066 | 3.05 ± 0.07 | 3.04 ± 0.052 | 2.84 ± 0.054
35 | ILTPESQLKKTKAQQKT [RPL7B] | 2.86 ± 0.095 | 2.89 ± 0.11 | 2.91 ± 0.076 | 2.86 ± 0.048
36 | ILTREVQNSTLAQLTSK [RPS1B] | 2.14 ± 0.069 | 2.71 ± 0.055 | 2.48 ± 0.075 | 2.45 ± 0.04
37 | ILVDSLTGNQLPTPTPT [SWI1] | 2.73 ± 0.066 | 2.76 ± 0.073 | 2.93 ± 0.048 | 2.73 ± 0.045
38 | IMATNRLDILDPALLRP [RPT6] | 2.92 ± 0.1 | 3.13 ± 0.092 | 2.81 ± 0.065 | 3.25 ± 0.057
39 | IMDELLSSIAERVRNFA [DIB1] | 1.9 ± 0.065 | 2.27 ± 0.086 | 2.06 ± 0.084 | 2.17 ± 0.082
40 | IMKIGGIKLQMQNSKVE [SMC4] | 2.11 ± 0.13 | 1.82 ± 0.1 | 2.25 ± 0.12 | 2.1 ± 0.12
41 | IMKNKDFILSLLHHVSE [YJL039C/NUP192] | 2.41 ± 0.12 | 2.35 ± 0.099 | 1.92 ± 0.11 | 2.52 ± 0.065
42 | IMNVLSEGFEPTFSTHA [PRP8] | 2.86 ± 0.096 | 2.94 ± 0.075 | 2.57 ± 0.07 | 2.67 ± 0.069
43 | INGINWRFHTPQKYVLH [SIN4] | 2 ± 0.057 | 1.92 ± 0.052 | 1.83 ± 0.097 | 1.97 ± 0.042
44 | INIQSFKDVEHISFNFS [BRR2] | 2.67 ± 0.081 | 2.79 ± 0.13 | 2.67 ± 0.092 | 2.75 ± 0.061
45 | INKIVEILTNQQRGITY [YGR119C/NUP57] | 1.64 ± 0.073 | 1.99 ± 0.12 | 2.12 ± 0.13 | 2.09 ± 0.065
46 | INKYESSPSHIELVVTE [RPL17A] | 2.08 ± 0.045 | 2.56 ± 0.051 | 2.05 ± 0.067 | 2.17 ± 0.036
47 | INNNINIPQQQQMQPPN [GAL11] | 2.58 ± 0.07 | 2.87 ± 0.073 | 2.83 ± 0.049 | 2.84 ± 0.056
48 | INQINEAHPTKVKNFGV [RPL20A] | 3.04 ± 0.074 | 2.93 ± 0.049 | 3.117 ± 0.031 | 2.85 ± 0.038
49 | INTLNGGSSDTADKIRI [GAL11] | 2.34 ± 0.098 | 2.02 ± 0.088 | 1.27 ± 0.094 | 1.4 ± 0.066
50 | IPAAGNNRSVSMQTIAE [SRB5] | 3.09 ± 0.078 | 3.12 ± 0.087 | 3.22 ± 0.081 | 3.3 ± 0.07
51 | IPAGIYWYWWKNGNEYN [QCR8] | 2.35 ± 0.076 | 1.69 ± 0.053 | 1.77 ± 0.13 | 2.04 ± 0.089
52 | IPATIFDKVIYHLHPTF [TAF14] | 2.61 ± 0.066 | 2.8 ± 0.068 | 2.55 ± 0.062 | 2.78 ± 0.057
53 | IPHDLNFLQESYEVEHV [TAF14] | 3.16 ± 0.096 | 3.33 ± 0.087 | 2.85 ± 0.07 | 3.12 ± 0.056
54 | IPKQLLDDEKIFSQTTN [YJL039C/NUP192] | 2.55 ± 0.077 | 2.77 ± 0.051 | 2.69 ± 0.059 | 3.1 ± 0.052
